# According to patent publication US20170081400A1 (CEPHALON, published 2017):
# Positions count from the first letter of the chain named. In names and notes the source's numbering stands.
# T1: human TL1A extracellular domain with N-terminal HIS and FLAG tag (human, UniProt O95150 72-251)
# T1 construct: the whole entry is named
# T1 sequence: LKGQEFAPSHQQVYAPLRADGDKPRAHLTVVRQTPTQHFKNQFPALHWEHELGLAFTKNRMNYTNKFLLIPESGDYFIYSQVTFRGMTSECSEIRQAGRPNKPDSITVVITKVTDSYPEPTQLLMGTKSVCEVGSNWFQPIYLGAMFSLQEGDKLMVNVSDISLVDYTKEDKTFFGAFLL
# B1: 320-421 (antibody, human IgG1, V domains shown)
# VH: QVQLVQSGAEVKKPGASVKVSCKASGYTYTSYDINWVRQAPGQGLEWMGWLNPNSGNTGYAQKFQGRVTMTADRSTSTAYMELSSLRSEDTAVYYCAREVPETAAFEYWGQGTLVTVSS
# VL: QSVLTQPPSVSGAPGQRVTISCTSSSSDIGAGLGVHWYQQLPGTAPKLLIEGYYNRPSGVPDRFSGSKSGTSASLTITGLLPEDEGDYYCQSYDGTLSALFGGGTKLTVL
# notes: human IgG1, lambda; the other rows have T at 28 and F at 29, so F29Y is probably meant
# B2: 320-428 (antibody, human IgG1, name in Kabat numbering, V domains shown)
# VH: B1 VH with Y29F, T30L
# VL: QSVLTQPPSVSGAPGQRVTISCTSSSSDIGAGLGVHWYQQLPGTAPKLLIEGYYNRPSGVPDRFSGSKSGTSASLTITGLLPEDEGDYYCQSYDGTLSALFGGGTKLTVLG
# notes: human IgG1, lambda
# B3: 320-429 (antibody, human IgG1, name in Kabat numbering, V domains shown)
# VH: B1 VH with Y29F, T30W
# VL: B2 VL
# notes: human IgG1, lambda
# B4: 320-430 (antibody, human IgG1, name in Kabat numbering, V domains shown)
# VH: B1 VH with Y29F, T30Y
# VL: B2 VL
# notes: human IgG1, lambda
# B5: 320-431 (antibody, human IgG1, name in Kabat numbering, V domains shown)
# VH: B1 VH with Y29F, S31A
# VL: B2 VL
# notes: human IgG1, lambda
# B6: 320-426 (antibody, human IgG1, name in Kabat numbering, V domains shown)
# VH: B1 VH with Y29F, T30H
# VL: B2 VL
# notes: human IgG1, lambda
# B7: 320-425 (antibody, human IgG1, name in Kabat numbering, V domains shown)
# VH: B1 VH with Y29F, T30D
# VL: B2 VL
# notes: human IgG1, lambda
# B8: 320-427 (antibody, human IgG1, name in Kabat numbering, V domains shown)
# VH: B1 VH with Y29F, T30K
# VL: B2 VL
# notes: human IgG1, lambda
# B9: 320-315 (antibody, human IgG1, name in Kabat numbering, V domains shown)
# VH: B1 VH with Y29F
# VL: B2 VL with Q91L
# notes: human IgG1, lambda
# B10: 320-346 (antibody, human IgG1, name in Kabat numbering, V domains shown)
# VH: B1 VH with Y29F
# VL: B2 VL with G95L
# notes: human IgG1, lambda
# B11: 320-330 (antibody, human IgG1, name in Kabat numbering, V domains shown)
# VH: B1 VH with Y29F
# VL: B2 VL with Y93L
# notes: human IgG1, lambda
# B12: 320-351 (antibody, human IgG1, name in Kabat numbering, V domains shown)
# VH: B1 VH with Y29F
# VL: B2 VL with T96Q
# notes: human IgG1, lambda
# B13: 320-348 (antibody, human IgG1, name in Kabat numbering, V domains shown)
# VH: B1 VH with Y29F
# VL: B2 VL with G95Y
# notes: human IgG1, lambda
# B14: 320-343 (antibody, human IgG1, name in Kabat numbering, V domains shown)
# VH: B1 VH with Y29F
# VL: B2 VL with G95D
# notes: human IgG1, lambda
# B15: 320-337 (antibody, human IgG1, name in Kabat numbering, V domains shown)
# VH: B1 VH with Y29F
# VL: B2 VL with D94L
# notes: human IgG1, lambda
# B16: 320-319 (antibody, human IgG1, name in Kabat numbering, V domains shown)
# VH: B1 VH with Y29F
# VL: B2 VL with S92Q
# notes: human IgG1, lambda
# B17: 320-341 (antibody, human IgG1, name in Kabat numbering, V domains shown)
# VH: B1 VH with Y29F
# VL: B2 VL with G95S
# notes: human IgG1, lambda
# B18: 320-325 (antibody, human IgG1, name in Kabat numbering, V domains shown)
# VH: B1 VH with Y29F
# VL: B2 VL with Y93A
# notes: human IgG1, lambda
# B19: 320-350 (antibody, human IgG1, name in Kabat numbering, V domains shown)
# VH: B1 VH with Y29F
# VL: B2 VL with T96S
# notes: human IgG1, lambda
# B20: 320-332 (antibody, human IgG1, name in Kabat numbering, V domains shown)
# VH: B1 VH with Y29F
# VL: B2 VL with D94A
# notes: human IgG1, lambda
# B21: 320-316 (antibody, human IgG1, name in Kabat numbering, V domains shown)
# VH: B1 VH with Y29F
# VL: B2 VL with Q91W
# notes: human IgG1, lambda
# B22: 320-342 (antibody, human IgG1, name in Kabat numbering, V domains shown)
# VH: B1 VH with Y29F
# VL: B2 VL with G95Q
# notes: human IgG1, lambda
# B23: 320-352 (antibody, human IgG1, name in Kabat numbering, V domains shown)
# VH: B1 VH with Y29F
# VL: B2 VL with T96D
# notes: human IgG1, lambda
# B24: 320-317 (antibody, human IgG1, name in Kabat numbering, V domains shown)
# VH: B1 VH with Y29F
# VL: B2 VL with Q91Y
# notes: human IgG1, lambda
# B25: 320-340 (antibody, human IgG1, name in Kabat numbering, V domains shown)
# VH: B1 VH with Y29F
# VL: B2 VL with G95A
# notes: human IgG1, lambda
# B26: 320-344 (antibody, human IgG1, name in Kabat numbering, V domains shown)
# VH: B1 VH with Y29F
# VL: B2 VL with G95H
# notes: human IgG1, lambda
# B27: 320-327 (antibody, human IgG1, name in Kabat numbering, V domains shown)
# VH: B1 VH with Y29F
# VL: B2 VL with Y93Q
# notes: human IgG1, lambda
# B28: 320-333 (antibody, human IgG1, name in Kabat numbering, V domains shown)
# VH: B1 VH with Y29F
# VL: B2 VL with D94S
# notes: human IgG1, lambda
# B29: 320-320 (antibody, human IgG1, name in Kabat numbering, V domains shown)
# VH: B1 VH with Y29F
# VL: B2 VL with S92D
# notes: human IgG1, lambda
# B30: 320-349 (antibody, human IgG1, name in Kabat numbering, V domains shown)
# VH: B1 VH with Y29F
# VL: B2 VL with T96A
# notes: human IgG1, lambda
# B31: 320-347 (antibody, human IgG1, name in Kabat numbering, V domains shown)
# VH: B1 VH with Y29F
# VL: B2 VL with G95W
# notes: human IgG1, lambda
# B32: 320-331 (antibody, human IgG1, name in Kabat numbering, V domains shown)
# VH: B1 VH with Y29F
# VL: B2 VL with Y93W
# notes: human IgG1, lambda
# B33: 320-353 (antibody, human IgG1, name in Kabat numbering, V domains shown)
# VH: B1 VH with Y29F
# VL: B2 VL with T96H
# notes: human IgG1, lambda
# Target: T1, human TL1A extracellular domain with …
# Test: SPR Run 5, Ab from supernatant captured on Protein A, TL1A 5 ug/mL, timepoint 44
# From the text: (§1) 1.5. Antibody expression and antigen binding as determined by SPR. Using a CM5 sensor chip (GE Healthcare) Protein A (Pierce) was coupled to the chip surface using an amine coupling kit (GE Healthcare). Protein A was coupled on flow cell 1 and 2 (or alternatively 3 and 4) using a BIACORE® T200. […] The amount of supernatant or purified protein (as well as the concentration) injected during the capture stage varied between runs and is specified in the header of the Tables 3-11. At the end of injection of the supernatant or purified antibody the change in response units was measured. This value was reported as Capture Level in Tables 3-11. […] The response units were measured prior to the end of the dissociation phase. […] The sensorgrams were double referenced (flow cell 2 is subtracted from flow cell 1 and a buffer blank). As there were a large number of antibody variants to screen, these were screened across different runs (Tables 3-11). […] A summary of the conditions used in each run is below:
# (§2) 2.1. […] In some experiment the antibodies were purified using Protein A chromatography (See 1.4) and purified antibodies were used in BIACORE® (GE Healthcare) experiments.
row,TL1A Binding Level (Early) [RU],Binder
1,9,B1
2,11,B2
3,12,B3
4,6,B4
5,6,B5
6,10,B6
7,14,B7
8,11,B8

# Target: T1, human TL1A extracellular domain with …
# Test: SPR Run 4, purified Ab captured on Protein A, TL1A 5 ug/mL, timepoint 44
# From the text: as §1, §2
row,TL1A Binding Level (Early) [RU],Binder
1,85,B9
2,126,B10
3,139,B11
4,112,B12
5,144,B13
6,121,B14
7,21,B15
8,18,B16
9,149,B17
10,95,B18
11,130,B19
12,66,B20
13,65,B21
14,152,B22
15,101,B23
16,86,B24
17,145,B25
18,117,B26
19,130,B27
20,95,B28
21,31,B29
22,112,B30
23,149,B31
24,173,B32
25,97,B33

# Target: T1, human TL1A extracellular domain with …
# Test: SPR Run 4, purified Ab captured on Protein A, TL1A 5 ug/mL, timepoint 220
# From the text: as §1, §2
row,TL1A Binding Level (Late) [RU],Binder
1,82,B9
2,107,B10
3,119,B11
4,83,B12
5,127,B13
6,90,B14
7,15,B15
8,14,B16
9,135,B17
10,83,B18
11,118,B19
12,44,B20
13,62,B21
14,139,B22
15,63,B23
16,83,B24
17,132,B25
18,87,B26
19,119,B27
20,67,B28
21,17,B29
22,88,B30
23,130,B31
24,176,B32
25,73,B33

# Target: T1, human TL1A extracellular domain with …
# Test: SPR Run 5, Ab from supernatant captured on Protein A, TL1A 5 ug/mL, timepoint 220
# From the text: as §1, §2
row,TL1A Binding Level (Late) [RU],Binder
1,8,B1
2,10,B2
3,11,B3
4,6,B4
5,6,B5
6,9,B6
7,12,B7
8,10,B8
